Results on 1 molecule are retold here after patent US20210070868A1 (published 2021).

The test has as its target Hepatocyte Growth Factor (HGF) (UniProt P14210 32-728). Description: ELISA. In general terms: ELISA stands for enzyme-linked immunosorbent assay.

Hepatocyte Growth Factor (HGF), sequence (P14210 32-728): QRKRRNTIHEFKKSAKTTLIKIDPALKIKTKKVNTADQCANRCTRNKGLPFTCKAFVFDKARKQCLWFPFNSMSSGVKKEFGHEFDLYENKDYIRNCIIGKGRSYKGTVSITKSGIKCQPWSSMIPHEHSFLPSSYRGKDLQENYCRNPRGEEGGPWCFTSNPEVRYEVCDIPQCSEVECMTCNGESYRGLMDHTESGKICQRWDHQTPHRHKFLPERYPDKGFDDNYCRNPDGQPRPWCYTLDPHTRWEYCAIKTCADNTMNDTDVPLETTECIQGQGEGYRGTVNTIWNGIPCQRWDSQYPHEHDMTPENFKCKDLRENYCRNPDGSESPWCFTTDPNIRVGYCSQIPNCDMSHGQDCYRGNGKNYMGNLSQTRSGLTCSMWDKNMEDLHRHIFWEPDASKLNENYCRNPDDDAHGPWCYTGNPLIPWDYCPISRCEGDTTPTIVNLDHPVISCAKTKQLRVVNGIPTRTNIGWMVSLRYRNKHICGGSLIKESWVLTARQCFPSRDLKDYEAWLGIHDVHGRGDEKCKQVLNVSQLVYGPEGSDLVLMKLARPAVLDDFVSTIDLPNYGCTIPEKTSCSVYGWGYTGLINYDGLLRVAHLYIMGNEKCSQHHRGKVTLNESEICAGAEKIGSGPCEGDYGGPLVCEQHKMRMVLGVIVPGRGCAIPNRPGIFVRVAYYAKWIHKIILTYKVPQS

B1: decoyMET^K842E (receptor)
chain: ECKEALAKSEMNVNMKYQLPNFTAETPIQNVILHEHHIFLGATNYIYVLNEEDLQKVAEYKTGPVLEHPDCFPCQDCSSKANLSGGVWKDNINMALVVDTYYDDQLISCGSVNRGTCQRHVFPHNHTADIQSEVHCIFSPQIEEPSQCPDCVVSALGAKVLSSVKDRFINFFVGNTINSSYFPDHPLHSISVRRLKETKDGFMFLTDQSYIDVLPEFRDSYPIKYVHAFESNNFIYFLTVQRETLDAQTFHTRIIRFCSINSGLHSYMEMPLECILTEKRKKRSTKKEVFNILQAAYVSKPGAQLARQIGASLNDDILFGVFAQSKPDSAEPMDRSAMCAFPIKYVNDFFNKIVNKNNVRCLQHFYGPNHEHCFNRTLLRNSSGCEARRDEYRTEFTTALQRVDLFMGQFSEVLLTSISTFIKGDLTIANLGTSEGRFMQVVVSRSGPSTPHVNFLLDSHPVSPEVIVEHTLNQNGYTLVITGKKITKIPLNGLGCRHFQSCSQCLSAPPFVQCGWCHDKCVRSEECLSGTWTQQICLPAIYKVFPNSAPLEGGTRLTICGWDFGFRRNNKFDLKKTRVLLGNESCTLTLSESTMNTLKCTVGPAMNKHFNMSIIISNGHGTTQYSTFSYVDPVITSISPKYGPMAGGTLLTLTGNYLNSGNSRHISIGGKTCTLKSVSNSILECYTPAQTISTEFAVKLKIDLANRETSIFSYREDPIVYEIHPTKSFISGGSTITGVGKNLNSVSVPRMVINVHEAGRNFTVACQHRSNSEIICCTTPSLQQLNLQLPLKTKAFFMLDGILSKYFDLIYVHNPVFEPFEKPVMISMGNENVLEIKGNDIDPEAVKGEVLKVGNKSCENIHLHSEAVLCTVPNDLLKLNSELNIEWKQAISSTVLGKVIVQPDQNFTASGAAWSHPQFEKGAAWSHPQFEKGAAWSHPQFEKGAAHHHHHH
One may read the Kd as the equilibrium constant for the complex coming apart. As to B1, binding was characterised by a dissociation constant (Kd) of 0.251 nM. In other words, the sub-nanomolar range.
